From patent publication US9637543B2, “HER3 antibodies and uses thereof” (THE UAB RESEARCH FOUNDATION, priority 2011, dated 2017) come the findings set out here.

Assay [1] has as its target T1, HER3 (Homo sapiens, UniProt P21860). Kind of assay: HER3 autophosphorylation in pancreatic cancer cell lines. It counts as cell-based. On the set-up: endogenous in cells; host or cells: N87, BT474, ZR75-30, Panc 2.03, A549 and a panel of human cancer cell lines. The following applies: single agents.
The subject of assay [2] is N87 human gastric cancer xenograft. Kind of assay: N87 human gastric cancer xenograft model. The format is in vivo. The following applies: lapatinib alone versus antibodies alone. A general note: Xenograft models place foreign cells or tissue in a host animal.
Assay [3] addresses T1, HER3. Kind of assay: NRG1-induced phosphorylation of HER3 in pancreatic cancer cell lines. It counts as cell-based. Details: endogenous in cells; host or cells: N87, BT474, ZR75-30, Panc 2.03, A549 and a panel of human cancer cell lines.
The target in assay [4] is T2, HER2 (Homo sapiens, UniProt P04626). Kind of assay: HER2 autophosphorylation in pancreatic cancer cell lines. On the set-up: endogenous in cells. The format is cell-based. The following applies: single agents.
Assay [5] concerns the target T2, HER2. Kind of assay: NRG1-induced phosphorylation of HER2 in pancreatic cancer cell lines. It counts as cell-based. On the set-up: endogenous in cells.
The target of assay [6] is T2, HER2. Kind of assay: HER2 tyrosine phosphorylation ELISA, antibodies with or without lapatinib. It counts as cell-based. Details: endogenous in cells; host or cells: N87 gastric cancer cells; ZR75-30 breast cancer cells. The following applies: 24 hours; for tyrosine phosphorylation level of HER2: N87 cells; for tyrosine phosphorylation levels of HER2: ZR75-30 cells. For orientation: In an ELISA, binding on a coated surface is turned into a signal by an enzyme label.

Assay [7] deals with EGFR (Homo sapiens, UniProt P00533). Kind of assay: EGFR tyrosine phosphorylation ELISA, antibodies with or without tyrosine kinase inhibitor. The settings on record: 24 hours.
For assay [8], the target named is T3, HER3-transfected SP 2/0 cells (Homo sapiens, UniProt P21860).
T3 construct: expressed in transfected cells; host or cells: SP 2/0 cells
T3 sequence (P21860 20-1342): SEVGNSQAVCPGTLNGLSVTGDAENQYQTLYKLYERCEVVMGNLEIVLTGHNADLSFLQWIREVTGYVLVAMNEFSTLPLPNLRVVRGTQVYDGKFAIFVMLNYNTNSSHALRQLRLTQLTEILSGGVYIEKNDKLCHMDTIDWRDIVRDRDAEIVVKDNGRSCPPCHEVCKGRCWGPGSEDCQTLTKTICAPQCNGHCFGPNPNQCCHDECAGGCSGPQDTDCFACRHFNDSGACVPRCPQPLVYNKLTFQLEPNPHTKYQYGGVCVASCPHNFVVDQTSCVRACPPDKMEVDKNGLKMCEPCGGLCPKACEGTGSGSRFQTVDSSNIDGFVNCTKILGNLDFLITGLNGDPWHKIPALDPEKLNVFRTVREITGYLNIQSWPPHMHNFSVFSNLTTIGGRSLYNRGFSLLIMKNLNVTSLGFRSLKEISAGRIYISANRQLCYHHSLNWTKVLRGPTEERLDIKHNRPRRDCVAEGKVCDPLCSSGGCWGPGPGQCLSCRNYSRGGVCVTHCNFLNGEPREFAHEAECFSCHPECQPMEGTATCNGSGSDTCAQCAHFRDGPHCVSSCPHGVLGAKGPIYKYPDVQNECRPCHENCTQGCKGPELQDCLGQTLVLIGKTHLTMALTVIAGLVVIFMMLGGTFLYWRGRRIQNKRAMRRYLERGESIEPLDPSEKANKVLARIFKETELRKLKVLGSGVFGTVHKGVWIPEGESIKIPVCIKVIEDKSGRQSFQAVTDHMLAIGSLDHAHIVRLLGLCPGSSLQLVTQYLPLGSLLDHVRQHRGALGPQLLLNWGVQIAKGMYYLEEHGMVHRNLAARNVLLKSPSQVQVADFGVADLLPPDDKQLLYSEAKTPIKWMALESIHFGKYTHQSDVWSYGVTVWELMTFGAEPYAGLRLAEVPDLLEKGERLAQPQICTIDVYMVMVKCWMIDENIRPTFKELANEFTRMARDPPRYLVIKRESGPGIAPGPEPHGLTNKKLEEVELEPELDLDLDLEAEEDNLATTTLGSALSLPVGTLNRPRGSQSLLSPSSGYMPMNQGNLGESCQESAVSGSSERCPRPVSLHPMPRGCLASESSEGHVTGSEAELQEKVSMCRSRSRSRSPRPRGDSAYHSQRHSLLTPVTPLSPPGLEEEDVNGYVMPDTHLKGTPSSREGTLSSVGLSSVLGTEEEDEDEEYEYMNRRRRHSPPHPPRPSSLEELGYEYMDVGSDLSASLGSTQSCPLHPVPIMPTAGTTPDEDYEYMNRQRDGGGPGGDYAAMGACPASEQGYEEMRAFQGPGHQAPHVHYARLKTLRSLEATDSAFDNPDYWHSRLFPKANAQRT
Kind of assay: Flow cytometry binding specificity on transfected SP 2/0 cells. The settings on record: EGFR, HER2 or HER3 transfected SP2/0 cells, 1 μg/ml purified antibody. How it is done:
(§1) The average OD values of triplicates are presented. The values for egFR are superimposed on the values for HER2. […] EGFR, HER2 or HER3-transfected SP 2/0 cells were stained with 1 μg/ml of purified antibody, followed by PE-goat anti-mouse IgG.
(§2) An ELISA plate was coated with 1 μg/ml of recombinant soluble EGFR, HER2, or the extracellular domain of HER3.
On the technique in general: Flow cytometry measures light scatter and fluorescence of single cells or particles in a stream.

The target in assay [9] is T1, HER3. Kind of assay: HER3 tyrosine phosphorylation ELISA, antibodies with or without tyrosine kinase inhibitor. The format is cell-based. On the set-up: endogenous in cells; host or cells: N87; tyrosine phosphorylation of HER3: dose or concentration left out as unconfirmed. The following applies: 24 hours; for tyrosine phosphorylation levels of HER3: 20 μg/ml antibody.

In assay [10] the target is T4, recombinant soluble HER3 (Homo sapiens, UniProt P21860).
T4 construct: coated with 1 μg/ml of recombinant soluble HER3
T4 sequence (P21860 20-643 limits assumed): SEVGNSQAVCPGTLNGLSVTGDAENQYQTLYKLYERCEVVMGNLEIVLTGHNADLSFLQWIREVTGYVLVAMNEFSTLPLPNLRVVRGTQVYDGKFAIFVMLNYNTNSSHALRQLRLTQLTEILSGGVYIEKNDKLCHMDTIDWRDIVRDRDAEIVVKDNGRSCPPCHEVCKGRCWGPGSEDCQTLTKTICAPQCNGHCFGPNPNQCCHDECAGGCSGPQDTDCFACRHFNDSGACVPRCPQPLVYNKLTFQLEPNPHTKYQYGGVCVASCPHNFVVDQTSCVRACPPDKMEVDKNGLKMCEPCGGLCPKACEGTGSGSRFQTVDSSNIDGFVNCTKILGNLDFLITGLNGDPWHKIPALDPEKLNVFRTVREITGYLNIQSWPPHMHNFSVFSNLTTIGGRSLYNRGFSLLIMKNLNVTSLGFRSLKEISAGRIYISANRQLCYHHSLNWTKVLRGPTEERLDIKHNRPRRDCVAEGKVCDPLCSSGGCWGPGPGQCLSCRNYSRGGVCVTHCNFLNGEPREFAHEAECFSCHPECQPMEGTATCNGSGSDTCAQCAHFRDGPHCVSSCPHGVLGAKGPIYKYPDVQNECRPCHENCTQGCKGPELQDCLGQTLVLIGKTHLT
Kind of assay: ELISA for blocking of NRG1 binding to HER3. The settings on record: 100 ng/ml biotin-conjugated NRG1, increasing antibody concentrations. The source says:
(§3) The binding of NRG1 to HER3 (vertical axis) was detected by HRP-streptavidin. […] NRG1 binding was detected by PE-streptavidin. The mean fluorescent intensities (MFI) of NRG1 bound are presented.
(§4) The binding of NRG1 to HER3 was detected by HRP-streptavidin. […] Thus, the 1A5 antibody is herein referred to as a ligand-independent antibody. […] Thus, the 3D4 antibody is herein referred to as a ligand-dependent antibody. […] NRG1 binding was detected by PE-streptavidin.

Assay [11] concerns A549 human lung cancer xenograft. Kind of assay: A549 human lung cancer xenograft model. It counts as in vivo.
The target of assay [12] is T5, HER3 (extracellular domain) (Homo sapiens, UniProt P21860).
T5 construct: recombinant soluble EGFR, HER2, or the extracellular domain of HER3
T5 sequence (P21860 20-643 limits assumed): as above
Kind of assay: ELISA binding specificity on recombinant soluble EGFR, HER2, HER3. The following applies: plate coated with 1 μg/ml recombinant soluble EGFR, HER2 or HER3 extracellular domain. The protocol:
as §1, §2

Assay [13] has as its target T4, recombinant soluble HER3. Kind of assay: Sandwich ELISA for epitopes (1A5 capture, HRP-3D4 detection). The format is binding. The settings on record: plate coated with 2 μg/ml 1A5, 200 ng/ml HRP-conjugated 3D4. How it is done: An ELISA plate was coated with 2 μg/ml of purified 1A5 and then incubated with indicated concentrations of recombinant soluble HER3 in the presence of 200 ng/ml HRP-conjugated 3D4. The binding of 3D4 to HER3 was detected by chemiluminescence substrate. The average counts per second of triplicates are presented.
An ELISA plate was coated with 2 μg/ml of purified 1A5 and then incubated with increasing concentrations of HER3 in the presence of 200 ng/ml HRP-conjugated 3D4. The binding of 3D4 antibody to HER3 was detected by chemiluminescence.

Assay [14] concerns the target T1, HER3. Kind of assay: Functional screen for inhibition of ligand-induced HER3 activation. It counts as cell-based. On the set-up: endogenous in cells; host or cells: N87, BT474, ZR75-30, Panc 2.03, A549 and a panel of human cancer cell lines. The settings on record: human cancer cell lines. The text has this:
Another HER3 antibody was generated by immunizing mice with human HER3 expressing SP 2/0 cells. […] Thus, the 3D4 antibody is a ligand-dependent antibody.

The target of assay [15] is T3, HER3-transfected SP 2/0 cells. Kind of assay: Flow cytometry for blocking of NRG1 binding to HER3. The following applies: 100 ng/ml biotin-conjugated NRG1, increasing antibody concentrations.
Source text: as §3, §4

“Also recorded” adds a separate entry of the source.

T1 sequence (P21860 20-1342): as the sequence (P21860 20-1342) above

Consider `C#Cc1cccc(Nc2ncnc3cc(OCCOC)c(OCCOC)cc23)c1` [erlotinib, reference compound], for which the “autophosphorylation of HER3” value in [1] was “but not erlotinib and lapatinib inhibited autophosphorylation of HER3”.
Take `CS(=O)(=O)CCNCc1ccc(-c2ccc3ncnc(Nc4ccc(OCc5cccc(F)c5)c(Cl)c4)c3c2)o1` [lapatinib, reference compound]: the tumor volume entry in assay [2] is “reduced tumor volume more than the administration of the combination of 1A5 and 3D4 antibodies”. In addition, the “NRG1-induced phosphorylation of HER3” value in assay [3] is listed as “only partially inhibited NRG1-induced phosphorylation of HER3; also recorded: partially reduced NRG-1-induced phosphorylation”. The “autophosphorylation of HER2” value in [4] is listed as “partially inhibited autophosphorylation of HER2”. In assay [1], the “autophosphorylation of HER3” value is “but not erlotinib and lapatinib inhibited autophosphorylation of HER3”. Further, the “NRG1-induced phosphorylation of HER2” value in [5] is “inhibited NRG1-induced phosphorylation of HER2; also recorded: inhibited NRG-1-induced phosphorylation of HER2”. In addition, the “tyrosine phosphorylation level of HER2” value in assay [6] (100 nM lapatinib with the antibodies) was “reduced”. Besides, the “tyrosine phosphorylation levels of HER2” value in [6] (100 nM lapatinib with the antibodies alone or in combination) is on record as “reduced tyrosine phosphorylation levels”.

B1: 3D4: ligand-dependent HER3 antibody; light chain variable region SEQ ID NO:9, heavy chain variable region SEQ ID NO:10 (antibody, V domains shown)
VH: MGWSRIFLFLLSIIAGVHCQVQLQQSGPELVKPGASVRISCKASGYTFTNYFLHWMKQRPGQGLEWIGWIYPGNVNTKYSEKFKGKATLTADKSSSTAYMQLSSLTSEDSAVYFCARSTYYSMDYWGQGTSVTVSS
VL: METDTLLLWVLLLWVPGSTGDIVLTQSPASLAVSLGQRATISCRASESVDSYGNSFMNWYQQKPGQPPKVLIYRASNLESGIPARFSGSGSRTDFTLTITPVEADDVATYYCQQSYEDPPTFGGGTKLEIK
For B1, the “tyrosine phosphorylation levels of EGFR” value in assay [7] (A549 cells, 20 μg/ml antibody, without Erlotinib) is recorded as “did not affect tyrosine phosphorylation levels of EGFR”. The “tyrosine phosphorylation level of EGFR” value in [7] (N87 cells, 20 mg/ml antibody, without lapatinib) is “did not affect the level of tyrosine phosphorylation for EGFR or HER2”. Also, the “NRG1-induced phosphorylation of HER3” value in assay [3] is listed as “inhibited NRG1-induced phosphorylation of HER3; also recorded: inhibited NRG-1 induced phosphorylation of HER3”. Further, the “binding specificity by flow cytometry” value in [8] is reported as “specifically bind HER3”. The “tyrosine phosphorylation levels of HER3, effect of adding Erlotinib” value in assay [9] (A549 cells, 20 μg/ml antibody with 100 nM Erlotinib) is “enhanced”. In addition, the “tyrosine phosphorylation levels of HER3” value in assay [9] (A549 cells, without Erlotinib) was “reduced the tyrosine-phosphorylation levels of HER3”; in [9] (ZR75-30 cells, without lapatinib) it was “reduced the tyrosine phosphorylation levels of HER3”. The “tyrosine phosphorylation of HER3” value in [9] (N87 cells, without lapatinib) is on record as “reduced the tyrosine phosphorylation of HER3”. Moreover, the “tyrosine phosphorylation of HER3, effect of adding lapatinib” value in assay [9] (N87 cells, with 100 nM lapatinib) is reported as “enhanced”. Also, the “tyrosine phosphorylation levels of HER3, effect of adding lapatinib” value in assay [9] (ZR75-30 cells, 20 μg/ml antibody with 100 nM lapatinib) is recorded as “enhanced”. For the same molecule, the “blocking of NRG1 binding to HER3 (ELISA)” value in assay [10] is recorded as “inhibited binding of NRG1 to HER3; also recorded: blocks ligand binding to HER3”. In addition, the tumor volume result in assay [11] (antibodies without Erbitux) is “reduced tumor volume”; in assay [11] (in combination with Erbitux) it was “reduced tumor volume more than administration of Erbitux alone”. The “binding specificity by ELISA” value in assay [12] was “specifically bind HER3; also recorded: specific binding”. In assay [13], the “epitopes of HER3 bound” value is given as “bind different epitopes of HER3; also recorded: recognize different epitopes on HER3”. Moreover, the “inhibition of ligand-induced HER3 activation” value in [14] is “ability to inhibit ligand-induced HER3 activation in human cancer cells lines”. In assay [15], the “blocking of NRG1 binding to HER3 (flow cytometry)” value was “blocked NRG1 binding to HER3; also recorded: blocks ligand binding to HER2”. Further, the “NRG1-induced phosphorylation of HER2” value in assay [5] is listed as “inhibited NRG1-induced phosphorylation of HER2; also recorded: inhibited NRG-1-induced phosphorylation of HER2”. For the same molecule, the “tyrosine phosphorylation level of HER2” value in assay [6] (without lapatinib) is listed as “did not affect the level of tyrosine phosphorylation for EGFR or HER2”. In assay [6] (20 μg/ml antibody, without lapatinib), the “tyrosine phosphorylation levels of HER2” value is “did not affect tyrosine phosphorylation levels of HER2”.
